Test results from patent US20180057604A1 (Genentech, published 2018).
Where a chain is given by its changes, count along the chain named. In names and notes the source's numbering stands.

T1: cyno TfR extracellular domain (analogous construct to human TfR ecd) (cynomolgus monkey, UniProt Q5RDH6 87-760 (Pongo abelii entry))
T1 construct: also called cynoTfR ecd
T1 chain: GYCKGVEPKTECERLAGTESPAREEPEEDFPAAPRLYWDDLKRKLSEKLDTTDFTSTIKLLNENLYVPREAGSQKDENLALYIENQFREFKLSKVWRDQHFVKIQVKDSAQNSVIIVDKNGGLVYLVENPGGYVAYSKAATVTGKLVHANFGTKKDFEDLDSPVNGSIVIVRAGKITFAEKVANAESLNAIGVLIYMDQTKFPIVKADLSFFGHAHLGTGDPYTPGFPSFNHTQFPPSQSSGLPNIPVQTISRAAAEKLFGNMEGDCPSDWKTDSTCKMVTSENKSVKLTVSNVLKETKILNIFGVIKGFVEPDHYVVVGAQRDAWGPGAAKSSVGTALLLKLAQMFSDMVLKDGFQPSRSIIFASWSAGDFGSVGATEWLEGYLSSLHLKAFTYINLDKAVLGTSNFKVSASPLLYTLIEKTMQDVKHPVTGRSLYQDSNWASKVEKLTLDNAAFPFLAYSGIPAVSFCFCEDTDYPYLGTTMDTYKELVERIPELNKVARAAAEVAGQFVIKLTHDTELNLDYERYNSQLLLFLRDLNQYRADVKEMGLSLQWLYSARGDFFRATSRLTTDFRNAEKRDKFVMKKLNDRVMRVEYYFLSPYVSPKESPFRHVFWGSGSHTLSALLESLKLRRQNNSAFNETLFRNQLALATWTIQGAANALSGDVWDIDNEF

B1: hu15G11.v5 IgG Ala variant Y32A (HVR-H1) (antibody, name in Kabat numbering, V domains shown)
VH: EVQLVQSGAEVKKPGASVKVSCKASGYTFTSAWMHWVRQAPGQRLEWIGEINPTNGRTNYIEKFKSRATLTVDKSASTAYMELSSLRSEDTAVYYCARGTRAYHYWGQGTMVTVSS
VL: DIQMTQSPSSLSASVGDRVTITCRASDNLYSNLAWYQQKPGKSPKLLVYDATNLADGVPSRFSGSGSGTDYTLTISSLQPEDFATYYCQHFWGTPLTFGQGTKVEIK
notes: IgG in cell culture supernatant
B2: hu15G11.v5 IgG Ala variant T53A (HVR-H2) (antibody, V domains shown)
VH: B1 VH with A32Y, T54A
VL: B1 VL
notes: IgG in cell culture supernatant; also called 15G11.T53A; 15G11.53A
B3: hu15G11.v5 IgG Ala variant Y59A (HVR-H2) (antibody, name in Kabat numbering, V domains shown)
VH: B1 VH with A32Y, Y60A
VL: B1 VL
notes: IgG in cell culture supernatant; Kabat numbers after 52a lie one below the linear count
B4: hu15G11.v5 IgG Ala variant Y30A (HVR-L1) (antibody, V domains shown)
VH: B1 VH with A32Y
VL: B1 VL with Y30A
notes: as for B1
B5: 5987 (antibody, V domains shown)
VH: QVQLVQSGAEVKKPGSSVKVSCKASGGTLSGYAISWVRQAPGQGLEWMGNIIPGFGTANYAQKSQGRVTITADESTSTAYMELSSLRSEDTAVYYCARSGGTRYGMLDVWGQGTMVTVSS
VL: EIVMTQSPATLSVSPGERATLSCRASQSVSSNLAWYQQKPGQAPRLLIYGASTRATGIPARFSGSGSGTEFTLTISSLQSEDFAVYYCQQLFLWPPRTFGGGTKVEIK
notes: anti-BACE1 IgG
B6: 6271 (antibody, V domains shown)
VH: B5 VH with L29I, A33G, S64F, R103K
VL: B5 VL with F92I
notes: anti-BACE1 IgG
B7: 5988 (antibody, V domains shown)
VH: B5 VH
VL: B5 VL with E1G, S30G, F92Y, L93T
notes: anti-BACE1 IgG
B8: 6273 (antibody, V domains shown)
VH: B5 VH with L29F, A33G, S64F, R103K
VL: B5 VL with L33I, F92L
notes: anti-BACE1 IgG
B9: 6276 (antibody, V domains shown)
VH: B5 VH with L29F, S30R, F55L, G56S, S64F, R103K
VL: B5 VL with F92I
notes: anti-BACE1 IgG
B10: 6272 (antibody, V domains shown)
VH: B5 VH with L29F, A33G, S64F, R103K
VL: B5 VL
notes: anti-BACE1 IgG
B11: 5990 (antibody, V domains shown)
VH: QLQLQESGPGLVKPSETLSLTCTVSGGSISWSSYYWSWIRQPPGKGLEWIGSIYRSGRTYYNPSLKSRVTISVDTSKNQFSLKLSSVTAADTAVYYCARVGHGINYFDLWGRGTLVTVSS
VL: EIVLTQSPATLSLSPGERATLSCRASRSVNSYLAWYQQKPGQAPRLLIYDASKRATGIPARFSGSGSGTDFTLTISSLEPEDFAVYYCQQVYTWPPRTFGGGTKVEIK
notes: anti-BACE1 IgG
B12: 6285 (antibody, V domains shown)
VH: B11 VH with I29T, W31S, S37G, R58S, N105S
VL: B11 VL with R27Q, N30S, K53S, V91S, Y92L
notes: anti-BACE1 IgG
B13: 6298 (antibody, V domains shown)
VH: B11 VH with S52N, R55Y, R58S, V100L, I104Y
VL: B11 VL with R27Q, N30S, Y36F, K53N, T93V
notes: anti-BACE1 IgG
B14: 6291 (antibody, V domains shown)
VH: B11 VH with W31S, S37G, S52M, R55Y, R58S, Y60W, I104V, N105S
VL: B11 VL with R27Q, N30S, D50G
notes: anti-BACE1 IgG
B15: 6294 (antibody, V domains shown)
VH: B11 VH with W31S, Y34H, S37G, S52M, R55Y, R58S, Y60W, I104V, N105S
VL: B11 VL with R27Q, N30S
notes: anti-BACE1 IgG
B16: 6280 (antibody, V domains shown)
VH: B11 VH with I29T, W31S, S37G, R58S, L65F, N105S
VL: B11 VL with R27Q, N30S, K53N, V91S, Y92L
notes: anti-BACE1 IgG
B17: 6300 (antibody, V domains shown)
VH: B5 VH
VL: B5 VL with M4L, S30G, L91S
notes: anti-BACE1 IgG
B18: Hu15G11.v1.Fab (Fab, V domains shown)
VH: B1 VH with A32Y, I48M, A68V, L70I, V72R, K74T
VL: B1 VL with S43A, V48L
notes: Fab
B19: Hu7A4.v5.Fab (Fab, V domains shown)
VH: EVQLVQSGAEVKKPGASVKVSCKASGYTFTDYAMHWVRQAPGQGLEWMGGISTYFGRTNYNQKFKGRVTMTRDTSISTAYMELSRLRSDDTAVYYCARGLSGNYVMDYWGQGTTVTVSS
VL: DIVMTQSPDSLAVSLGERATINCRASESVDSYGNSFMHWYQQKPGQPPKLLIYRASNLESGIPDRFSGSGSGTDFTLTISSLQAEDVAVYYCQQSNEGPPTFGQGTKLEIK
notes: Fab
B20: Hu7A4.v8.Fab (Fab, V domains shown)
VH: B19 VH with A24G, R72V
VL: B19 VL
notes: Fab

Molecular target: T2, human TfR extracellular domain with N-terminal His tag (human, UniProt P02786 89-760)
T2 construct: Biotinylated in some assays; also called huTfR; HuTfR
Assay: ELISA, TfR-coated plate, IgG in culture supernatant;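 also: human or cynomolgus TfR coated at 2 µg/mL, supernatant IgG titrated in 1:5 steps for 1 h, bound antibody read with HRP anti-human Fcγ and TMB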
Description: (§1) The Hu/Cy binding ELISA was performed in maxisorp plates coated with 2 μg/ml of purified human or cyno TfR in PBS at 4° C. overnight. Plates were washed with PBS/0.05% Tween 20 and blocked using Superblock blocking buffer in PBS (Thermo Scientific, Hudson, N.H.). Cell culture supernatants containing the expressed Ala scan variant IgGs were serially diluted 1:5 and added to the wells for 1 h. Plates were washed with PBS/0.05% Tween 20 and 1:1000 diluted HRP-Goat-anti human Fcγ (Jackson ImmunoResearch) was added the plate and incubated for 1 hour at room temperature. Plates were washed with PBS/0.05% Tween 20 and detected using TMB substrate (BioFX Laboratories, Owings Mills).

Binder	EC50
B1	0.4 ng/mL
B2	0.3 ng/mL
B3	0.3 ng/mL
B4	0.3 ng/mL

Molecular target: T1, cyno TfR extracellular domain …
Assay: as above
Description: as §1

Binder	EC50
B1	1.4 ng/mL
B2	0.7 ng/mL
B3	0.7 ng/mL
B4	1 ng/mL

Molecular target: T3, BACE1 in primary mouse cortical neurons (mouse, UniProt P56818 46-501)
T3 sequence (P56818 46-501): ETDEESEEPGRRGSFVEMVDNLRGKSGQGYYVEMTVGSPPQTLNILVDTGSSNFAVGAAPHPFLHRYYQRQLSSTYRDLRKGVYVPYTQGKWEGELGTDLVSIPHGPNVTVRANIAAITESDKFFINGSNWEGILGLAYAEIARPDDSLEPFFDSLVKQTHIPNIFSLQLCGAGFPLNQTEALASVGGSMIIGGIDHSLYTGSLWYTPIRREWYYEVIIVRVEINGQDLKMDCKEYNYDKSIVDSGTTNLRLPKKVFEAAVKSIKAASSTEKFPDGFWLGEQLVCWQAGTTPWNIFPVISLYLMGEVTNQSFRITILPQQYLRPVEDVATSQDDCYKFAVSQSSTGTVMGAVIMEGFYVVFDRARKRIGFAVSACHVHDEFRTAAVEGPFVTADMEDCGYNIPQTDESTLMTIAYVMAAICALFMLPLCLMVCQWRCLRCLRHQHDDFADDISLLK
Assay: cell-based or functional assay

Binder	IC50, Abeta x-40 in mouse cortical neurons	maximal % inhibition of Abeta x-40
B5	7.2 nM	69%
B6	1.77 nM	83%
B7	3.55 nM	75%
B8	5.71 nM	82%
B9	7.4 nM	81%
B10	43.6 nM	82%
B11	0.53 nM	61%
B12	15.4 nM	57%
B13	1.95 nM	67%
B14	1.41 nM	68%
B15	3.53 nM	59%
B16	8.29 nM	65%

Molecular target: T4, human BACE1 ECD
T4 construct: analyte of the Octet assay (200 nM) and enzyme of the first short substrate assay; also called human BACE1 extracellular domain
T4 sequence (single chain, as listed by the source limits assumed): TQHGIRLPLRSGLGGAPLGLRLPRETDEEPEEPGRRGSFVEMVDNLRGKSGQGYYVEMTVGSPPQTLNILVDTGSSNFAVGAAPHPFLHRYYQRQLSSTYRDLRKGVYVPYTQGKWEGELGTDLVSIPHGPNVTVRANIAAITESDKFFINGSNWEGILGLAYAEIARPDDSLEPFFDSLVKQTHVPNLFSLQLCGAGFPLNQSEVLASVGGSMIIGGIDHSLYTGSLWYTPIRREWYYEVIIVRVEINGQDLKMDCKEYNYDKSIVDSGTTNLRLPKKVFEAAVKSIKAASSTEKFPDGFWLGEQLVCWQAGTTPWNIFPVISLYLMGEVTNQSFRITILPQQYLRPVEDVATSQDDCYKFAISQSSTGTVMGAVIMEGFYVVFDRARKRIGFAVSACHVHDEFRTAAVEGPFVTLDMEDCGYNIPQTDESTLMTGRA
Assay: Octet, pH 7.5;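 also: antibodies captured on anti-human capture sensor tips, dissociation monitored in PBS with BSA, Kd obtained from kinetic fit to a one-to-one binding model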
Description: (§2) Anti-BACE1 antibodies were loaded onto anti-human capture (AHC) sensors (tips) followed by 60 seconds baseline in assay buffer. […] Tips were transferred to assay buffer for 5 minutes, 30 minutes, or 120 minutes depending on the off-rate, for off-rate measurement. Assay buffer was either PBS+0.1% BSA, pH 7.5; or PBS+0.1% BSA, pH 5.0. Kinetics were analyzed using a 1:1 binding model.

Binder	Kd
B5	< 0.32 nM
B6	< 0.31 nM
B7	< 0.29 nM
B17	< 0.8 nM
B8	< 0.39 nM
B9	< 0.59 nM
B10	< 0.87 nM
B11	< 0.18 nM
B12	0.32 nM
B13	0.39 nM
B14	< 0.28 nM
B15	< 0.3 nM
B16	< 0.32 nM

Molecular target: T5, murine BACE1 ECD
T5 construct: analyte of the Octet assay (200 nM) and enzyme of the first short substrate assay
T5 sequence (single chain, as listed by the source limits assumed): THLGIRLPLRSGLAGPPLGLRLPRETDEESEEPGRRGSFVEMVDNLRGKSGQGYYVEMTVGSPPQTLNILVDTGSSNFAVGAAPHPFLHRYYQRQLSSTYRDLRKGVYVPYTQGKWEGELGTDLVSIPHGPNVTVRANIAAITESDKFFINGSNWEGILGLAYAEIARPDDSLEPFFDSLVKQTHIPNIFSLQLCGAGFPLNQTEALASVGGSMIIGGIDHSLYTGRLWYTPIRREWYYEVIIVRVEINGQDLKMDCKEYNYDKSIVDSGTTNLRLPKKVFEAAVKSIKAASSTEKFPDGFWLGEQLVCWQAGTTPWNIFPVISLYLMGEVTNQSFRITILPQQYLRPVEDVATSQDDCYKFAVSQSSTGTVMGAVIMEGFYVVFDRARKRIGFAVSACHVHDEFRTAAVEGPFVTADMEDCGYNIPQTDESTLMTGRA
Assay: Octet, pH 7.5;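 also: antibodies captured on anti-human capture sensor tips, dissociation monitored in PBS with BSA, Kd obtained from kinetic fit to a one-to-one binding model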
Description: as §2

Binder	Kd
B5	< 0.29 nM
B6	< 0.31 nM
B7	< 0.29 nM
B17	< 0.68 nM
B8	< 0.39 nM
B9	< 0.62 nM
B10	< 0.41 nM
B11	< 0.18 nM
B12	< 0.28 nM
B13	0.46 nM
B14	< 0.26 nM
B15	< 0.3 nM
B16	< 0.32 nM

Molecular target: T4, human BACE1 ECD
Assay: Octet, pH 5.0;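 also: antibodies captured on anti-human capture sensor tips, dissociation monitored in PBS with BSA buffer, kinetics fitted with a one-to-one binding model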
Description: as §2

Binder	Kd
B5	< 0.25 nM
B6	< 0.24 nM
B7	< 0.25 nM
B17	< 0.34 nM
B8	< 0.26 nM
B9	< 0.41 nM
B10	< 0.39 nM
B11	< 0.18 nM
B12	0.43 nM
B13	0.32 nM
B14	< 0.26 nM
B15	< 0.27 nM
B16	0.31 nM

Molecular target: T5, murine BACE1 ECD
Assay: Octet, pH 5.0;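 also: antibodies captured on anti-human capture sensor tips, dissociation monitored in PBS with BSA buffer, kinetics fitted with a one-to-one binding model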
Description: as §2

Binder	Kd
B5	< 0.29 nM
B6	< 0.31 nM
B7	< 0.29 nM
B17	< 0.4 nM
B8	< 0.4 nM
B9	< 0.54 nM
B10	< 0.4 nM
B11	< 0.23 nM
B12	0.41 nM
B13	0.4 nM
B14	< 0.3 nM
B15	< 0.34 nM
B16	< 0.31 nM

Molecular target: T3, BACE1 in primary mouse cortical neurons
Assay: cell-based or functional assay
Remark: another data set of the same source

Binder	IC50, Abeta x-40 in mouse cortical neurons	maximal % inhibition of Abeta x-40
B17	9.1 nM	71%

Molecular target: T2, human TfR extracellular domain with …
Assay: SPR, TfR captured by anti-His, Fab injected;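 also: single cycle kinetics with a Fab dilution series, fitted by a one-to-one Langmuir model or a steady state model, KD taken as koff over kon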
Target sequence in this assay (P02786 89-760 G142S): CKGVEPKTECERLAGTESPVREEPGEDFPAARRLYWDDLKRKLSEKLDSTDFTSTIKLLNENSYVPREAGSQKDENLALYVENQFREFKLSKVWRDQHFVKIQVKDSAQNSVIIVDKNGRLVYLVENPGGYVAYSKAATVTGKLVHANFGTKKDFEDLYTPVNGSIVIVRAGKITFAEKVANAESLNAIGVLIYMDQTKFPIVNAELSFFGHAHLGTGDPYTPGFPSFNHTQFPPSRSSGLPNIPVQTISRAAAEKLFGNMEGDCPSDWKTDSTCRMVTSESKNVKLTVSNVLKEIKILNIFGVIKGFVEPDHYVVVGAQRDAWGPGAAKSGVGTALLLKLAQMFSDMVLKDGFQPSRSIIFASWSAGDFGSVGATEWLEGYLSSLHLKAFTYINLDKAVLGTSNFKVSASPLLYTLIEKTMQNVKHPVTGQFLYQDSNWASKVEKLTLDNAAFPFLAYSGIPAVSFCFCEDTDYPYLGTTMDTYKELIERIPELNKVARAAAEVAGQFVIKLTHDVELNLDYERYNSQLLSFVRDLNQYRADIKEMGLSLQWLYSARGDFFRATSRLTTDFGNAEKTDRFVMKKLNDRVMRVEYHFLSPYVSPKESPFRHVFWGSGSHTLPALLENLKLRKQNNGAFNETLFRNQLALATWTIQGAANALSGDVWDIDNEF
Description: (§3) Antibody affinities were measured using surface plasmon resonance (“SPR”) (Biacore™, GE Healthcare). Anti-His antibody (Qiagen) was coupled onto four different flow cells of a BIACORE™ CM5 sensor chip (Biacore, Inc., Piscataway, N.J.) at between 6000 and 8000 RU. Immobilization was achieved by random coupling through amino groups using a protocol provided by the manufacturer. 10×HBS-P (Biacore, Inc., Piscataway, N.J.) was diluted in water and served as the dilution and running buffer. Purified human or cyno TfR was captured, followed by a 3-fold dilution series of IgG or Fab that was injected at a flow rate of 30 ml/min using the single cycle kinetics method. Affinity constants were determined using a simple 1:1 Langmuir binding model or using a steady state model when kₒₙ or koff was beyond the detection limit. The equilibrium dissociation constant (KD) was calculated as the ratio of association rate constant (kₒₙ) and dissociation rate constant (koff).
(§4) In both cases, the SPR experiments were performed as described above.

Binder	Kd	koff	kon
B18	10.9 nM	0.00699 s⁻¹	638000 M⁻¹ s⁻¹
B19	0.686 nM	0.00153 s⁻¹	2.24e+06 M⁻¹ s⁻¹
B20	1.15 nM	0.00107 s⁻¹	928000 M⁻¹ s⁻¹

Molecular target: T1, cyno TfR extracellular domain …
Assay: SPR, TfR captured by anti-His, Fab injected;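 also: single cycle kinetics with a Fab dilution series, fitted by a one-to-one Langmuir model or a steady state model, KD taken as koff over kon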
Description: as §3, §4

Binder	Kd	koff	kon
B18	73.9 nM	0.0373 s⁻¹	505000 M⁻¹ s⁻¹
